Measurements from paper PMC8840930, “PSTPIP1-LYP phosphatase interaction: structural basis and implications for autoinflammatory disorders” (Cellular and Molecular Life Sciences: CMLS, 2022).
Several values for one entry are separate records, joined by “and”; a condition that tells them apart may be missing. Equal values may be shown once. Blank lines part the entries; values can stand above or below the binder they belong to. Ends that are not written are not given here.

B2: F-BAR domain of PSTPIP1 (residues 1-289), wild type (domain or fragment)
chain: not shown
notes: PSTPIP1, human, UniProt O43586, region 1-289 (F-BAR domain); modified pET15b with TEV site; homodimer in the crystals; also called wild type F-BAR; F-BAR of PSTPIP1; not shown: poly-His, N-terminal, cleaved
B3: fluorescein-LYP-CTH (peptide)
peptide: fluorescein-GFANRFSKPKGPRNPPPTWNI
notes: LYP (PTPN22), human, UniProt Q9Y2R2-1, region 787-807 (C-terminal homology segment, CTH); also called fluorescein-labeled LYP-CTH; synthetic peptide of the CTH of LYP (residues 787-807) labeled with fluorescein; source: synthetic peptide (custom synthesized, Thermo Scientific, Germany)

Tests used:
[1] = biological target: B2; assay: ITC; 25 °C; F-BAR of PSTPIP1 in the cell (26.2-30.6 µM), unlabeled LYP-CTH peptide in the syringe (146.8-155.2 µM); 20 mM sodium phosphate pH 7.5, 150 mM NaCl, 5% DMSO; single set of identical sites model; conditions: both partners purified
fluorescein-LYP-CTH [2] = biological target: B3; assay: fluorescence polarisation; fluorescence anisotropy under saturation conditions; fluorescein-LYP-CTH at 1 µM titrated with the F-BAR of PSTPIP1; stoichiometry from the intersection of asymptotes; conditions: both partners purified
[3] = biological target: the molecule itself; assay: crystal structure; F-BAR domain of PSTPIP1 (1-289) alone, G258A and wild type; space group P212121, two molecules in the asymmetric unit
[4] = biological target: T1, F-BAR domain of PSTPIP1 (residues 1-289), A230T (human, UniProt O43586 1-289, A230T); assay: fluorescence polarisation; fluorescence anisotropy; fluorescein-LYP-CTH (2 nM) titrated with the F-BAR of PSTPIP1; 20 mM Tris/HCl pH 7.5, 150 mM NaCl, 0.1 mg/mL BSA; 25 °C; apparent kd, one-to-one binding model; conditions: both partners purified
T1 construct: PSTPIP1, human, UniProt O43586, region 1-289 (F-BAR domain), patient mutation A230T; also called A230T mutant; not shown: poly-His, N-terminal, cleaved
T1 sequence (O43586 1-289 A230T): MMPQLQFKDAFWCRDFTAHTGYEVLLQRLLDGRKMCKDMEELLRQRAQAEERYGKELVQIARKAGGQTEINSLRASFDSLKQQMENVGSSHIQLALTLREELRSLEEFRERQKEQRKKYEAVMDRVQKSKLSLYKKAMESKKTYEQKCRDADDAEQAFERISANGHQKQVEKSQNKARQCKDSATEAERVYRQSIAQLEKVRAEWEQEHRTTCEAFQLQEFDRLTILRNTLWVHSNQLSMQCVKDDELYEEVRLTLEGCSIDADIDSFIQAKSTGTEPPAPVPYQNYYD

[5] = biological target: B2; assay: as above; conditions: both partners purified
fluorescein-LYP-CTH [6] = biological target: B3; assay: as above; conditions: both partners purified
[7] = biological target: T2, F-BAR domain of PSTPIP1 (residues 1-289), wild type (human, UniProt O43586 1-289); assay: ITC; unlabeled LYP-CTH peptide in the syringe, F-BAR of PSTPIP1 in the cell; 25 °C; 20 mM sodium phosphate (pH 7.5), 150 mM NaCl, 5% (v/v) DMSO; single set of identical sites model; three single experiments; conditions: both partners purified
T2 construct: His tag cleaved with TEV protease; forms the F-BAR dimer in the crystal; also called PSTPIP1 F-BAR (1-289); F-BAR of PSTPIP1; not shown: poly-His, N-terminal, cleaved

Binder: B2
stoichiometry N (fluorescein-LYP-CTH [2]): 2 molecules of PSTPIP1 for each LYP-CTH | binding result [3]: binds

Binder: B3
Kd [4]: ~20 nM | Kd [5]: ~20 nM

B7: F-BAR domain of PSTPIP1 (residues 1-289), G258A (domain or fragment)
chain: not shown
notes: PSTPIP1, human, UniProt O43586, residues 1-289 (F-BAR domain), patient mutation G258A; homodimer in the crystal; also called G258A mutant; PSTPIP1-G258A; not shown: poly-His, N-terminal, cleaved
stoichiometry N [3]: 2

Continued, values first:

Kd [1]: 253 nM | stoichiometry N [1]: 0.48 molecules of LYP-CTH for each PSTPIP1
B1: LYP-CTH peptide, unlabeled (residues 787-807) (peptide)
peptide: GFANRFSKPKGPRNPPPTWNI
notes: LYP (PTPN22), human, UniProt Q9Y2R2-1, region 787-807 (C-terminal homology segment, CTH); also called unlabeled LYP-CTH; peptide of the CTH of LYP; source: synthetic peptide (custom synthesized, Genosphere Biotechnologies, France)

fold lower binding affinity than the wild type F-BAR (fluorescein-LYP-CTH [6]): ~60 fold
B4: F-BAR domain of PSTPIP1 (residues 1-289), E250Q (domain or fragment)
chain: not shown
notes: PSTPIP1, human, UniProt O43586, region 1-289 (F-BAR domain), patient mutation E250Q; not shown: poly-His, N-terminal, cleaved

fold lower binding affinity than the wild type F-BAR (fluorescein-LYP-CTH [6]): ~60 fold
B5: F-BAR domain of PSTPIP1 (residues 1-289), W232A (domain or fragment)
chain: not shown
notes: PSTPIP1, human, UniProt O43586, region 1-289 (F-BAR domain), W232A; not shown: poly-His, N-terminal, cleaved

Kd [7]: 263 nM and 229 nM and 267 nM | stoichiometry N [7]: 0.5 and 0.49 and 0.46
B6: unlabeled peptide of the CTH of LYP (residues 787-807) (peptide)
peptide: GFANRFSKPKGPRNPPPTWNI
notes: lymphoid phosphatase LYP (PTPN22), human, C-terminal homology segment, region 787-807; also called LYP-CTH; source: synthetic peptide (Genosphere Biotechnologies)
